Laboratory results as given in article PMC5645524.

Key:
[1] = molecular target: Actin of the thin filament in human ventricular myocytes (human (endogenous in ventricular myocytes)) (UniProt P68032); experiment: autocorrelation function of fluctuations of fluorescence anisotropy (confocal, about 6 molecules); in situ, A-band of isolated EDC-cross-linked myocytes from failing human left ventricles, isometric contraction in contracting solution (5 mM ATP, 0.1 mM CaCl2, pH 7.5); 20 s records, time resolution 10 ms; three-state fit
[2] = molecular target: Actin of the thin filament in human ventricular myocytes (human (endogenous in ventricular myocytes)) (UniProt P68032); experiment: autocorrelation function of fluctuations of fluorescence anisotropy (confocal, about 6 molecules); in situ, A-band of isolated EDC-cross-linked myocytes from failing human right ventricles, isometric contraction in contracting solution (5 mM ATP, 0.1 mM CaCl2, pH 7.5); 20 s records, time resolution 10 ms; three-state fit

Substance: Ventricular myosin cross-bridge carrying the exchanged fluorescent LC (from UniProt P12883 1-1935; P05976 1-194; P10916 1-166) (complex)
- k (DISS) (rate of dissociation of the cross-bridge from the thin filament during contraction) [1]: 2.24
- k (DISS) (rate of dissociation of the cross-bridge from the thin filament during contraction) [2]: 2.36
